The target in this assay is N-terminal GFP-tagged tail-less hFcRn (ssECTM: signal sequence-GFP-ectodomain-transmembrane domain) stably expressed on HEK293 cells (human) [GFP: P42212]. Briefly: flow cytometry on ssECTM cells at pH 7.5, 50 ug/ml hIgG-AF647, no competitor. (Flow cytometry measures light scatter and fluorescence of single cells or particles in a stream.)

Data on 1 substance can be found in US20100266530A1.

Consider human IgG (hIgG) (antibody), for which the MFI came out at 6 MFI.
